This passage reports Kd results from article PMC5714352.

For the data set, the system named is NucT H124N (Helicobacter pylori 26695). In words: EMSA.

Regarding “CAACGGCATAAAGCTTGACGATTACATTGCTAGGACATCTTTGCCCACCTGCAGGTTCACCC [substrate I (XV98, 62-mer ssDNA)]”, the Kd is 2 nM.
